Results: patent US20030148511A1

Biological target: human granzyme B (human) (UniProt P10144)
Assay: cell-based or functional assay

Sequence of UniProt P10144 (P10144 21-247 limits assumed): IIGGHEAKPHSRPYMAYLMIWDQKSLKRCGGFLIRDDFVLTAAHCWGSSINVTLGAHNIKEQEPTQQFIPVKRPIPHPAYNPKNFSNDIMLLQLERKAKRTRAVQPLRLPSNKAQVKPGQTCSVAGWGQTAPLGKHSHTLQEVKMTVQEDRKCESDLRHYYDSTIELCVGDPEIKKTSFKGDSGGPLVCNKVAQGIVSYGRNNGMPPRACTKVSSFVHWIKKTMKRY

apoptosis of Jurkat cells (% of cells YOPRO-1-positive) after perforin and human granzyme B (% of cells YOPRO-1-positive): 27
Substance: serine protease inhibitor 6 (SPI6), mouse serpin
